This passage reports koff results from publication PMC3588017, “Measurement of the Interaction Between Recombinant I-domain from Integrin alpha 2 beta 1 and a Triple Helical Collagen Peptide with the GFOGER Binding Motif Using Molecular Force Spectroscopy” (International Journal of Molecular Sciences, 2013).

A word on the koff: it is the rate constant with which the complex falls apart.

Test [1] deals with GPP peptide, synthetic triple helical control peptide GPC[GPP]10GPCG. Briefly: dynamic force spectroscopy (AFM); as a1, repeated over a range of loading rates; most dominant peak force against loading rate fitted with the Bell-Evans model; koff at zero applied force. The note with it: both partners purified.
Test [2] concerns the target GFOGER peptide, synthetic triple helical collagen related peptide GPC[GPP]5GFOGER[GPP]5GPCG. Described as above. The note with it: both partners purified.

B1: I-domain from integrin alpha 2 beta 1, locked open I-domain cleaved of its GST tag (CLOI) (domain or fragment)
chain: CPSLIDVVVVCDESNSIYPWDAVKNFLEKFVQGLDIGPTKTQVGLIQYANNPRVVFNLNTYKTKEEMIVATSQTSQYGGDLTNTFGAIQYARKYAYSAASGGRRSATKVMVVVTDGESHDGSMLKAVIDQCNHDNILRFGIAVLGYLNRNALDTKNLIKEIKAIASIPTERYFFNVSDEAALLEKAGTLGEQIFSIEG
Take B1: the koff came out at 11 s⁻¹ in test [1] and 0.44 s⁻¹ in test [2].
